Measurements taken from US20230093155A1 (CUGENE, published 2023).
Positions count from the first letter of the chain named. Names may count otherwise. Bridge positions count the residues as written; N and C are the ends. Ends that are not written are not given here.

B1: L03 (IL-2Rβ-based blocking peptide) (peptide)
peptide: CEISQASHYFERHLC
modifications: bridge 1-15 (inferred); also: biotinylated, site not given here, cyclized, bridge kind not given here
notes: also called cyclized loop 2
B2: P-0757 (wild-type IL-2RαSushi monovalent Fc fusion) (Fc fusion)
chain: ELCDDDPPEIPHATFKAMAYKEGTMLNCECKRGFRRIKSGSLYMLCTGNSSHSSWDNQCQCTSSATRNTTKQVTPQPEEQKERKTTEMQSPMQPVDQASLPGHCREPPPWENEATERIYHFVVGQMVYYQCVQGYRALHRGPAESVCKMTHGKTRWTQPQLICTG
notes: also called w/t IL-2Rα; not shown: Fc chain fused to the Sushi domain, its linker and orientation, and the partner Fc chain of the monovalent heterodimer
B3: P-0753 (IL-2RαSushi R36A monovalent Fc fusion) (Fc fusion)
chain: B2 chain with R36A
notes: also called IL-2Rα R36A; not shown: Fc chain fused to the Sushi variant, its linker and orientation, and the partner Fc chain of the monovalent heterodimer
B4: P-0751 (IL-2RαSushi Y43A monovalent Fc fusion) (Fc fusion)
chain: B2 chain with Y43A
notes: also called IL-2Rα Y43A; not shown: Fc chain fused to the Sushi variant, its linker and orientation, and the partner Fc chain of the monovalent heterodimer
B5: P-0752 (IL-2RαSushi L42G monovalent Fc fusion) (Fc fusion)
chain: B2 chain with L42G
notes: also called IL-2Rα L42G; not shown: Fc chain fused to the Sushi variant, its linker and orientation, and the partner Fc chain of the monovalent heterodimer

The binders below were run against P-0153 (IL-15/IL-15RαSushi+ Fc fusion protein) (assay: ELISA, P-0153 coated, biotinylated peptide titrated, Streptavidin-HRP).
Experimental: The five peptides, L01 to L05 (SEQ ID NO: 97-101) in Table 19 were synthesized and assessed for their binding to IL-15 in ELISA format. […] Streptavidin-HRP complex at the manufacturer's recommended concentration was added and signal was developed by TMB substrate.

Chain of P-0153 (IL-15/IL-15RαSushi+ Fc fusion protein) (chain, as listed by the source, chain 1 of 2): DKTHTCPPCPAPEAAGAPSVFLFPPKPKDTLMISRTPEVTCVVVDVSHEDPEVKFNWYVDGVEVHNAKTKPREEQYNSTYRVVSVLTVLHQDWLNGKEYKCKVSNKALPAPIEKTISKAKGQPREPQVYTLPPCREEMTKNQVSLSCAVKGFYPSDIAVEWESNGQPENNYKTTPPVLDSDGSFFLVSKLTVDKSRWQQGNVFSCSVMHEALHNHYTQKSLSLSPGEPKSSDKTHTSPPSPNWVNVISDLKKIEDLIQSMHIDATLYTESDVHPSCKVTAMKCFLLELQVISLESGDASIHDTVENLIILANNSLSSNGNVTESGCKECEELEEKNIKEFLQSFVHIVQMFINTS
Chain of P-0153 (IL-15/IL-15RαSushi+ Fc fusion protein) (chain, as listed by the source, chain 2 of 2): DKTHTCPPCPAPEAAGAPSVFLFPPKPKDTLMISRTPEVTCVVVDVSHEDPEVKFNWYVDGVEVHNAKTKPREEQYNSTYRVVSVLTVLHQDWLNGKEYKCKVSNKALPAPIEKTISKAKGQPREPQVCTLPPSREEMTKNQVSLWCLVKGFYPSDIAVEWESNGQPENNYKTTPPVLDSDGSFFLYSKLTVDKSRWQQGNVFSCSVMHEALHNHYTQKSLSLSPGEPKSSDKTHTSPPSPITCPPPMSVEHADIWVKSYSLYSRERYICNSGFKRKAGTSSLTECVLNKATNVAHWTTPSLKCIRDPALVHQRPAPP

binding result | Binder
binds | B1

Each binder was assayed against T1, P-0689 (IL-2 Fc fusion) (Homo sapiens (Human), UniProt P0DOX5 223-448 = IgG part) (assay: ELISA, IL-2RαSushi Fc fusion coated, P-0689 titrated, biotin anti-IL2 antibody and Avidin-HRP).
T1 construct: Monovalent IL-2 S125I Fc fusion; also called IL-2 S125I monovalent Fc fusion protein; monovalent wild-type IL-2 Fc fusion protein
Experimental: IL-2Rα variants were designed to reduce binding to IL-2 by incorporating mutations at residues interacting IL-2 so that the D3 moiety would readily diffuse away upon in vivo proteolysis. Three exemplary IL-2RαSushi variants (SEQ ID NOS: 267-269) were expressed as monovalent Fc fusion proteins corresponding to P-0751 (Y43A), P-0752 (L42G), and P-0753 (R36A), respectively. The three IL-2RαSushi variant Fc fusions were assessed for the impacts of individual mutations on binding to IL-2 in ELISA in comparison to their wild-type IL-2RαSushi counterpart fusion referred to as P-0757.
Briefly, IL-2RαSushi variant monovalent Fc fusion proteins was coated onto the wells of Nunc Maxisorp 96-well microplates at 1 μg/well. […] Following a one-hour incubation at room temperature, 100 μl/well of biotin anti-IL2 antibody clone B33-2 (BD biosciences) at 1 μg/ml were added to each well and incubated at room temperature for 1 hour. Subsequently, 100 μl/well of Avidin-HRP (BioLegend) at 1:500 dilution was added to each well and incubated for 30 min. Finally, 100 μl TMB substrate was added to each well; the plate was developed at room temperature, and 100 μl/well of stop solution was added. Absorbance was determined at 450 nm and curves were fit using Prism software (GraphPad).

EC50 | EC50 Fold change vs w/t IL-2Rα | Binder
0.26 nM | 1 fold | B2
90 nM | 346 fold | B3
2.1 nM | 8.1 fold | B4
9.2 nM | 35 fold | B5
